For 27 molecules, peptide exchange yield results are on record in patent US20180222961A1 (IMMATICS BIOTECHNOLOGIES, published 2018).

In the assay the target is T1, HLA-A*03:01 (human).
T1 construct: also called peptide-receptive MHC molecules
In words: UV-exchange b2m ELISA; exchange-yield grade. In short, it runs like this: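 Peptide-MHC complexes formed by UV-triggered exchange of a cleavable ligand for the test peptide. Exchange yield measured on streptavidin-coated plates by HRP anti-β2m ELISA (1 h, 37 °C; A450) on 100-fold diluted samples. Refolded HLA-A*02:01 monomers at 15-500 ng/ml served as standards.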

B1: KTLELRVAY (peptide)
peptide: KTLELRVAY
In turn, B1 registered a peptide exchange yield of 20 to 50%.

B2: VTADHSHVF (peptide)
peptide: VTADHSHVF
B2 came in with a peptide exchange yield of 10 to 20%.

B3: RQPERTILRPR (peptide)
peptide: RQPERTILRPR
In turn, B3 had a peptide exchange yield of 20 to 50%.

B4: NLSSITHER (peptide)
peptide: NLSSITHER
B4 came in with a peptide exchange yield of 20 to 50%.

B5: AIKVIPTVFK (peptide)
peptide: AIKVIPTVFK
B5 showed a peptide exchange yield of 20 to 50%.

B6: RAKELEATF (peptide)
peptide: RAKELEATF
In the case of B6, the peptide exchange yield lay in the range of 10 to 20%.

B7: RVNAIPFTY (peptide)
peptide: RVNAIPFTY
Consider B7, for which the peptide exchange yield lay in the range of 50 to 75%.

B8: RSRLNPLVQR (peptide)
peptide: RSRLNPLVQR
B8 had a peptide exchange yield of 20 to 50%.

B9: VTDLISPRK (peptide)
peptide: VTDLISPRK
The molecule B9 came in with a peptide exchange yield of 20 to 50%.

B10: RLKGDAWVYK (peptide)
peptide: RLKGDAWVYK
The molecule B10 gave a peptide exchange yield of 50 to 75%.

B11: QIHDHVNPK (peptide)
peptide: QIHDHVNPK
B11: the peptide exchange yield lay in the range of 20 to 50%.

B12: IVQEPTEEK (peptide)
peptide: IVQEPTEEK
Turning to B12, the peptide exchange yield lay in the range of 20 to 50%.

B13: SVSSETTKIKR (peptide)
peptide: SVSSETTKIKR
With B13, the peptide exchange yield was 20 to 50%.

B14: ISYSGQFLVK (peptide)
peptide: ISYSGQFLVK
With B14, the peptide exchange yield is 50 to 75%.

B15: GTNTVILEY (peptide)
peptide: GTNTVILEY
In turn, B15 yielded a peptide exchange yield of 50 to 75%.

B16: RMFADDLHNLNK (peptide)
peptide: RMFADDLHNLNK
Molecule B16 showed a peptide exchange yield of 50 to 75%.

B17: SVSGVKTTF (peptide)
peptide: SVSGVKTTF
For the molecule B17, the peptide exchange yield was 20 to 50%.

B18: VSKTTGMEF (peptide)
peptide: VSKTTGMEF
As to B18, the peptide exchange yield lay within 10 to 20%.

B19: KTFPASTVF (peptide)
peptide: KTFPASTVF
For B19, the peptide exchange yield was 10 to 20%.

B20: STTFPTLTK (peptide)
peptide: STTFPTLTK
For the molecule B20, the peptide exchange yield lay in the range of 20 to 50%.

B21: SSSSATISK (peptide)
peptide: SSSSATISK
In the case of B21, the peptide exchange yield was in the range of 20 to 50%.

B22: HTFGLFYQR (peptide)
peptide: HTFGLFYQR
B22: the peptide exchange yield is 20 to 50%.

B23: GTYAHTVNR (peptide)
peptide: GTYAHTVNR
For the molecule B23, the peptide exchange yield was 50 to 75%.

B24: GAYAHTVNR (peptide)
peptide: GAYAHTVNR
For B24, the peptide exchange yield lay in the range of 50 to 75%.

B25: AVFNPRFYRTY (peptide)
peptide: AVFNPRFYRTY
With B25, the peptide exchange yield fell in the range of 20 to 50%.

B26: TTALKTTSR (peptide)
peptide: TTALKTTSR
Turning to B26, the peptide exchange yield fell in the range of 10 to 20%.

B27: RTEEVLLTFK (peptide)
peptide: RTEEVLLTFK
The molecule B27 returned a peptide exchange yield of 20 to 50%.
